The test concerns the target SARS-CoV-2 S2 fragment (fusion fragment; postfusion S2 trimer, peak 2) (SARS-CoV-2). The test is described as follows: cryo-EM structure.

Usually stoichiometry N stands for the number of molecules, sites or subunits per partner or assembly. On to “SARS-CoV-2 S2 fragment (fusion fragment; postfusion S2 trimer, peak 2) (domain or fragment)”, for which the stoichiometry N is 3.

The values above are taken from PMC7464562.
